In article PMC4992971, “ATP-Dependent C–F Bond Cleavage Allows the Complete Degradation of 4-Fluoroaromatics without Oxygen” (mBio, 2016):

Legend:
[1] = substrate: CC(C)(COP(=O)(O)OP(=O)(O)OC[C@H]1O[C@@H](n2cnc3c(N)ncnc32)[C@H](O)[C@@H]1OP(=O)(O)O)[C@@H](O)C(=O)NCCC(=O)NCCSC(=O)c1ccc(F)cc1; experiment: continuous spectrophotometric assay, dithionite-reduced methyl viologen as electron donor; assay type: biochemical, Thauera aromatica; conditions: ATP-dependent, 30°C, enriched enzyme
[2] = substrate: CC(C)(COP(=O)(O)OP(=O)(O)OC[C@H]1O[C@@H](n2cnc3c(N)ncnc32)[C@H](O)[C@@H]1OP(=O)(O)O)[C@@H](O)C(=O)NCCC(=O)NCCSC(=O)c1ccccc1; experiment: as above; assay type: biochemical, Thauera aromatica; conditions: ATP-dependent, 30°C, enriched enzyme

B1: 4-F-BCR / class I benzoyl-CoA reductase (BCR, BcrABCD) (Thauera aromatica) (protein)
chain 1: SAKTNPEVIKESSMVKQKEMIAGNYDRLTGTKESGEKVVSTFVPGNLNELIMCFDMVNNLPETNAIQNGMRKQSGGMIMDAEKAGHSEDVCTYVKADIGMMGRGNIAPNGKPMPAPDMLLLSYTGCFTFMKWFELLRHEYKCPTVMLQIPYQGDGKITKNMRDFVVKQLKEEVIPMFEQVSGVKFDIDRLREYLKNSAKAEDDLVWVLESAKNRPSPIDAYFGGVYYIGPMFTAFRGTADAVEYYGLLRGEIEQRIREGKGPITPEGDMKEEKYRLVVEGPPNWTSFREFWKLFYDEGAVVVASSYTKVGGLYDQGFRHDPNDPLGTLADYCLGCYTNNNLPQRVELLEKYMNEYQADGLLINSIKSCNSFSAGQLLMMREIEKRTGKPAAFIETDLVDPRYFSHANVKNRLESYFQMVDQKRSGASLATA
chain 2: STADIIARCEALYEDLDFTAARQWKEADPSRKVIAYMPVYVPREIIHAAGMLPLGIMGGGDGLEVIHGDAFYQSYICRIPRSTIELGLSKRMDFVDGMLFPSICDVIRNLSGMWKLMFPGKYVRYFDVPQNYRDDVGGNYYTAELNELREGLEHLSGRKITDDALRASIKVYNENRKLVQDVYGLRSREPWKVPSADVYLLMRAGLVLPVEEHNQMLKDYLAAAVKVEAQKRDNCRVIINGSFCEQPPLNLIKSIELSGCYIVDDDYMIVHRFLRNEVSTAGDPMQNLSLAFLHESISTAAKYDDKEEDKGKYLLEQVRTNAAEGVIFAAPSFCDPALLERPMLADRCSENKVPYISFKYAENSGQMQPIREQAGTFADSIKLWS
notes: native enzyme enriched from 4-fluorobenzoate-grown cells, heterotetramer of four subunits BcrABCD, no tag; with Benzoyl-CoA reductase subunit A; Benzoyl-CoA reductase subunit D
Km [1]: 97 µM
Km [2]: 43 µM
